Assay results from paper PMC9486944, “Structurally Informed Mutagenesis of a Stereochemically Promiscuous Aldolase Produces Mutants That Catalyze the Diastereoselective Syntheses of All Four Stereoisomers of 3-Deoxy-hexulosonic Acid” (ACS Catalysis, 2022).
One block for each molecule: values may come before it.

What was measured:
[1] = target: SsKDG-aldolase Variant 2 (T157V/D181Q/A198L) (Sulfolobus solfataricus); assay: crystal structure; hanging-drop vapor diffusion at 18 °C; 11–15% PEG4K, 4–12% isopropanol, 0.1 M HEPES pH 5.9–6.8; unsoaked crystals, crystals soaked in 30 mM 3-deoxy-hexulosonic acid, Variant 2 also cocrystallized with 100 mM pyruvate
SsKDG-aldolase = target: T1, SsKDG-aldolase (Saccharolobus solfataricus, UniProt O54288, T157V/A198L); assay: X-ray crystal structure; assay type: binding; conditions: Variant 3; 2 min soak in 30 mM ligand; active site, covalent (Lys155 Schiff base)
T1 construct: full length, pET-3a in E. coli BL21 (DE3); heat treatment, anion exchange, gel filtration; no tag mentioned; 293 C-alpha positions; tetramer
Excerpt: X-ray crystal structure on SsKDG-aldolase | which enabled us to determine the structure of the […] complex

purified protein [2] = substrate: O=C[C@@H](O)CO; assay: purified protein; conditions: 50 mM sodium phosphate pH 6.0, 70 °C
purified protein [3] = substrate: O=C[C@H](O)CO; assay: purified protein; conditions: 50 mM sodium phosphate pH 6.0, 70 °C
[4] = substrate: CC(=O)C(=O)O; assay: thiobarbituric acid assay of aldol product; assay type: biochemical, Saccharolobus solfataricus; conditions: 50 mM sodium phosphate pH 6.0, 70 °C
Excerpt: thiobarbituric acid assay of aldol product on SsKDG-aldolase

[5] = Variant 3, near-saturating pyruvate
[6] = Variant 3, near-saturating D-glyceraldehyde
[7] = Variant 4, near-saturating pyruvate
[8] = Variant 4, near-saturating D-glyceraldehyde

stoichiometry N [1]: 4
Molecule: SsKDG-aldolase Variant 2 (T157V/D181Q/A198L) (enzyme)

Molecule: O=C(O)C(=O)C[C@@H](O)[C@@H](O)CO [L-KDGlc]
X-ray crystal structure (SsKDG-aldolase): which enabled us to determine the structure of the L-KDGlc complex

B1: SsKDG-aldolase (Saccharolobus solfataricus; A198L/T157V) (protein)
chain: PEIITPIITPFTKDNRIDKEKLKIHAENLIRKGIDKLFVNGTTGLGPSLSPEEKLENLKAVYDVTNKIIFQVGGLNLDDAIRLAKLSKDFDIVGIASYAPYYYPRMSEKHLVKYFKTLCEVSPHPVYLYNYPTATGKDIDAKVAKEIGCFTGVKDVIENIIHTLDYKRLNPNMLVYSGSDMLIATVASTGLDGNVALGSNYLPEVTVTIKKLAMERKIDEALKLQFLHDEVIEASRIFGSLSSNYVLTKYFQGYDLGYPRPPIFPLDDEEERQLIKKVEGIRAKLVELKILKE
notes: full length, pET-3a in E. coli BL21 (DE3); heat treatment, anion exchange, gel filtration; no tag mentioned; 293 C-alpha positions; tetramer
Km (purified protein [2]; [5]): 37.6 (±0.2) mM
Vmax (purified protein [2]; [5]): 6.1 µmol/min/mg
Km (purified protein [3]; [5]): 19.5 (±0.2) mM
Vmax (purified protein [3]; [5]): 1.8 µmol/min/mg
Km [4, 6]: 2.9 (±0.1) mM
Vmax [4, 6]: 1.7 µmol/min/mg

B2: SsKDG-aldolase (Saccharolobus solfataricus; A198F/Y103F/Y130F) (protein)
chain: PEIITPIITPFTKDNRIDKEKLKIHAENLIRKGIDKLFVNGTTGLGPSLSPEEKLENLKAVYDVTNKIIFQVGGLNLDDAIRLAKLSKDFDIVGIASYAPYFYPRMSEKHLVKYFKTLCEVSPHPVYLFNYPTATGKDIDAKVAKEIGCFTGVKDTIENIIHTLDYKRLNPNMLVYSGSDMLIATVASTGLDGNVAFGSNYLPEVTVTIKKLAMERKIDEALKLQFLHDEVIEASRIFGSLSSNYVLTKYFQGYDLGYPRPPIFPLDDEEERQLIKKVEGIRAKLVELKILKE
notes: as for B1
Km (purified protein [2]; [7]): 6.3 (±0.18) mM
Vmax (purified protein [2]; [7]): 0.06 µmol/min/mg
Km (purified protein [3]; [7]): 6.9 (±0.2) mM
Vmax (purified protein [3]; [7]): 0.11 µmol/min/mg
Km [4, 8]: 0.3 (±0.04) mM
Vmax [4, 8]: 0.09 µmol/min/mg
